According to patent US20150139990A1 (DAINIPPON SUMITOMO PHARMA, published 2015):

T1: human CD81 on CD81-expressing cells (Jurkat E6.1, human PBMC, Ramos) (human, UniProt P60033 1-236)
T1 sequence: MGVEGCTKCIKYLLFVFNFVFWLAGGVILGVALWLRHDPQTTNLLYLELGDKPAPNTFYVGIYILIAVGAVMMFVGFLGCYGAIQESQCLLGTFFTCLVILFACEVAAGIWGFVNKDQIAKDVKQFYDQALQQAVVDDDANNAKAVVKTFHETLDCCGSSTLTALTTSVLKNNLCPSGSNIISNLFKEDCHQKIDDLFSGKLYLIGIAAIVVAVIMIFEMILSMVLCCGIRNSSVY

T2: human CD81 mutant V169A (human, UniProt P60033 1-236, limits assumed)
T2 construct: as m30; not shown: C-terminal V5 and 6xHis tags
T2 sequence: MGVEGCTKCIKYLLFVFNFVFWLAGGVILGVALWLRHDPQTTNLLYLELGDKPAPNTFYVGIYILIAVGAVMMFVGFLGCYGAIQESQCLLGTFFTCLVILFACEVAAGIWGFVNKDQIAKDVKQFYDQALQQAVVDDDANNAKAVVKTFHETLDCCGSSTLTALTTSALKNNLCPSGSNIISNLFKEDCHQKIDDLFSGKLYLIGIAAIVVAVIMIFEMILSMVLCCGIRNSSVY

T3: human CD81 mutant A164V (human, UniProt P60033 1-236, limits assumed)
T3 construct: as m30; not shown: C-terminal V5 and 6xHis tags
T3 sequence: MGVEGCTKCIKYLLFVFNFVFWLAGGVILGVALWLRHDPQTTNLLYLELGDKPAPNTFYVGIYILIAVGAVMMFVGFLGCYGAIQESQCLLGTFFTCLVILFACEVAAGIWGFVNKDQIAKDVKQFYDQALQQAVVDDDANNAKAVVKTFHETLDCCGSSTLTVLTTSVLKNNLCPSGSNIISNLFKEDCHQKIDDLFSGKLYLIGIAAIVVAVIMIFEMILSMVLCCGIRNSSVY

T4: human CD81 mutant V169L (human, UniProt P60033 1-236, limits assumed)
T4 construct: as m30; not shown: C-terminal V5 and 6xHis tags
T4 sequence: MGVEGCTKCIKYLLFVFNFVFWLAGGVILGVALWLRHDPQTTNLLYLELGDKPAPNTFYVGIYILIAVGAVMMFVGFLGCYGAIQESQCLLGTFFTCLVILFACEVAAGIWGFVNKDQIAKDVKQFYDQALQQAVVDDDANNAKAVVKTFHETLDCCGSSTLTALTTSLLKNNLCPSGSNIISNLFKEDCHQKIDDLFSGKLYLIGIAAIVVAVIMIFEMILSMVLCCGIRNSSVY

T5: human CD81 mutant L165A (human, UniProt P60033 1-236, limits assumed)
T5 construct: as m30; not shown: C-terminal V5 and 6xHis tags
T5 sequence: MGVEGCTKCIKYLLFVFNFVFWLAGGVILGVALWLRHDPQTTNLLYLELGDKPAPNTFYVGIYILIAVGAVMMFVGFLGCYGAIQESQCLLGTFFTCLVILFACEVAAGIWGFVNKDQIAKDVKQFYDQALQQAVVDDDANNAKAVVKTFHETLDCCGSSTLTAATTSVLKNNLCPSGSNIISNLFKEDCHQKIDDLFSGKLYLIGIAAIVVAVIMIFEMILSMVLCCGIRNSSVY

T6: human CD81 mutant V135A (human, UniProt P60033 1-236, limits assumed)
T6 construct: as m30; not shown: C-terminal V5 and 6xHis tags
T6 sequence: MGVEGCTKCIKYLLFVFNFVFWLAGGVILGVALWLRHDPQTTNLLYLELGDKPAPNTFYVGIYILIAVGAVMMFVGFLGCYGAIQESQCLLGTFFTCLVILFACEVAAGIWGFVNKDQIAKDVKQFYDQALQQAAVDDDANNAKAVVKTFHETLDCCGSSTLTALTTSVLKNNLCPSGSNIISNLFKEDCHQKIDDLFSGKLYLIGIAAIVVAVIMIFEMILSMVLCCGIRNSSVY

T7: human CD81 mutant A164T (human, UniProt P60033 1-236, limits assumed)
T7 construct: as m30; not shown: C-terminal V5 and 6xHis tags
T7 sequence: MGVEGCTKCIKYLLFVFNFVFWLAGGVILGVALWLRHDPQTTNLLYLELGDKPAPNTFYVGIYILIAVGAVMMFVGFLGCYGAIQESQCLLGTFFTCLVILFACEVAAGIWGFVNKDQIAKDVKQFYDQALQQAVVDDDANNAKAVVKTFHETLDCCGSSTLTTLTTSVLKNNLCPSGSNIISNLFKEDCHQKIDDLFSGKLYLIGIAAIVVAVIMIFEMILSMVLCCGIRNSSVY

T8: human CD81 mutant D137A (human, UniProt P60033 1-236, limits assumed)
T8 construct: as m30; not shown: C-terminal V5 and 6xHis tags
T8 sequence: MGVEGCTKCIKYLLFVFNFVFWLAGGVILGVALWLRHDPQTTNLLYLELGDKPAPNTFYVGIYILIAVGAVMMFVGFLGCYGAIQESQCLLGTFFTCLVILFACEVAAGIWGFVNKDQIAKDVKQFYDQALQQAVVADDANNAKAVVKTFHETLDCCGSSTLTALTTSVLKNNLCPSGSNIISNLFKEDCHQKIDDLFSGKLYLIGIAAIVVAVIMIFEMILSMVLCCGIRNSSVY

B1: 001-B06 (antibody, human IgG4 S228P, lambda, V domains shown)
VH: EVQLLESGGGLVQPGGSLRLSCAASGFTFSSNYMSWVRQAPGKGLEWVSYISSSSTYTDYADSVKGRFTISRDNSKNTLYLQMNSLRAEDTAVYYCARYSYGRDTFDYWGQGTLVTVSS
VL: QSVLTQPFSASGTPGQRVTISCTGSTSNIGAGYDTHWYQQLPGTAPKLLIYGNSNRPSGVPDRFSGSKSGTSASLAISGLRPEDEADYYCQSYDTSLSVWVFGGGTKLTVLG
notes: IgG4 S228P
B2: 002-B07 (antibody, human IgG4 S228P, lambda, V domains shown)
VH: EVQLLESGGGLVQPGGSLRLSCAASGFTFSSNYMSWVRQAPGKGLEWVSYISSSSTYTDYADSVKGRFTISRDNSKNTLYLQMNSLRAEDTAVYYCARYSYGRDNFDYWGQGTLVTVSS
VL: QSVLTQPSSASGTPGQRVTISCTGSTSNIGAGYDTHWYQQLPGTAPKLLIYGNSNRPSGVPDRFSGSKSGTSASLAISGLRSEDEADYYCQSYDTNLSGWVFGGGTKLTVLG
notes: IgG4 S228P
B3: 002-D08 (antibody, human IgG4 S228P, lambda, V domains shown)
VH: EVQLLESGGGLVQPGGSLRLSCATSGFPFSSNYMSWVRQAPGKGLEWVSYISSSSTYSDYADSVKGRFSISRDNSKNTLYLQMNSLRAEDTAVYYCARYSYGRDNFDYWGQGTLVTVSS
VL: QSVLTQPSSASGTPGQRVTISCTGSTSNIGAGYATHWYQQLPGTAPKLLIYGNSNRPSGVPDRFSGSKSGTSASLAISGLRSEDEADYYCQSYDTNLSVWVFGGGTKLTVLG
notes: IgG4 S228P
B4: 002-H03 (antibody, human IgG4 S228P, lambda, V domains shown)
VH: EVQLLESGGGLVQPGGSLRLSCAASGFTFSSNYMSWVRQAPGKGLEWVSYISSSSTYTDYADSVKGRFTISRDNSKNTLYLQMNSLRAEDTAVYYCARYSYGRDNFDYWGQGTLVTVSS
VL: QSVLTQPSSASGTPGQRVTISCTGSTSNIGAGYDTHWYQQLPGTAPKPLIYGNSNRPSGVPDRFSGSKSGTSASLAISGLRSEDEADYYCQSYDTNLSAWVFGGGTKLTVLG
notes: IgG4 S228P
B5: 002-D03 (antibody, human IgG4 S228P, lambda, V domains shown)
VH: EVQLLESGGGLVQPGGSLRLSCAASGFTFRSNYMSWVRQAPGKGLEWVSYISSSSTYTDYADSVKGRFTISRDNSKNTLYLQMNSLRAEDTAVYYCARYSYGRDNFDYWGQGTLVTVSS
VL: QSVLTQPPSASGTPGQRVTISCTGSTSNIGAGYDTHWYQQLPGTAPKLLIYGNSNRPSGVPDRFSGSKSGTSASLAISGLRSEDEADYYCQSYDTNLSVWVFGGGTKLTVLG
notes: IgG4 S228P
B6: 002-H02 (antibody, human IgG4 S228P, lambda, V domains shown)
VH: EVQLLESGGGLVQPGGSLRLSCAASGFTFSSNYMSWVRQAPGKGLEWVSYISSSSTYTDYADSVKGRFTISRDNSKNTLYLQMNSLRAEDTAVYYCARYSYGRDSFDYWGQGTLVTVSS
VL: QSVLTQPSSASGTPGQRVTISCTGSTSNIGAGYGTHWYQQLPGTAPKLLIYGNSNRPSGVPDRFSGSKSGTSASLAISGLRSEDEADYYCQSYDTNLSVWVFGGGTKLTVLG
notes: IgG4 S228P
B7: 002-C09 (antibody, human IgG4 S228P, lambda, V domains shown)
VH: EVQLLESGGGLVQPGGSLRLSCAASGFTFSSNYMSWVRQAPGKGLEWVSYISSSSTYTDYADSVKGRFTISRDNSKNTLYLQMNSLRAEDTAVYYCARYSYGRDNFDYWGQGTLVTVSS
VL: QSVLTQPASASGTPGQRVTISCTGSTSNIGAGYGTHWYQRLPGTAPKLLIYGNSNRPSGVPDRFSGSKSGTSASLAISGLRSEDEADYYCQSYDTNLSGWVFGGGTKLTVLG
notes: IgG4 S228P
B8: 002-D10 (antibody, human IgG4 S228P, lambda, V domains shown)
VH: EVQLLESGGGLVQPGGSLRLSCAASGFTFSSNYMSWVRQAPGKGPEWVSYISSSSTYTDYADSVKGRFTISRDNSKNTLYLQMNSLRAEDTAVYYCARYSYGRDNFDYWGQGTLVTVSS
VL: QSVLTQPSSASGTPGQRVTISCTGSTSNIGAGYDTHWYQQLPGTAPKLLIYGNSNRPSGVPDRFSGSKSGTSASLAVSGLRSEDEAEYYCQSYDTNLSGWVFGGGTKLTVLG
notes: IgG4 S228P

What was measured:
[1] = molecular target: T1, human CD81 on CD81-expressing cells …; experiment: cell-based or functional assay
human CD81 mutant V169A = molecular target: T2, human CD81 mutant V169A; experiment: ELISA
human CD81 mutant A164V = molecular target: T3, human CD81 mutant A164V; experiment: ELISA
human CD81 mutant V169L = molecular target: T4, human CD81 mutant V169L; experiment: ELISA
human CD81 mutant L165A = molecular target: T5, human CD81 mutant L165A; experiment: ELISA
human CD81 mutant V135A = molecular target: T6, human CD81 mutant V135A; experiment: ELISA
human CD81 mutant A164T = molecular target: T7, human CD81 mutant A164T; experiment: ELISA
human CD81 mutant D137A = molecular target: T8, human CD81 mutant D137A; experiment: ELISA

Binder | Jurkat chemotaxis (% of control IgG4) at 0.001 µg/mL [1] [%] | Jurkat chemotaxis (% of control IgG4) at 0.01 µg/mL [1] [%] | Jurkat chemotaxis (% of control IgG4) at 0.1 µg/mL [1] [%] | Jurkat chemotaxis (% of control IgG4) at 1 µg/mL [1] [%] | Jurkat chemotaxis (% of control IgG4) at 10 µg/mL [1] [%] | relative binding affinity (human CD81 mutant V169A) [%] | relative binding affinity (human CD81 mutant A164V) [%] | relative binding affinity (human CD81 mutant V169L) [%] | relative binding affinity (human CD81 mutant L165A) [%] | relative binding affinity (human CD81 mutant V135A) [%] | relative binding affinity (human CD81 mutant A164T) [%] | relative binding affinity (human CD81 mutant D137A) [%]
B1 | 102 | 91 | 35 | 3 | 3 | < 20 |  |  |  |  |  | 
B2 | 92 | 87 | 8 | 4 | -9 | < 20 | < 20 | < 20 | < 20 | < 20 | < 20 | 
B3 | 101 | 105 | 67 | 19 | 14 | < 20 | < 20 |  | < 20 | < 20 | < 20 | 
B4 | 106 | 89 | 13 | 0 | -3 | < 20 | < 20 |  | < 20 | < 20 | < 20 | 
B5 | 105 | 91 | 25 | 14 | 16 | < 20 | < 20 | < 20 | < 20 | < 20 | < 20 | < 20
B6 | 87 | 85 | -1 | -10 | -2 | < 20 | < 20 | < 20 | < 20 | < 20 | < 20 | 
B7 | 101 | 82 | 15 | -1 | 11 | < 20 | < 20 | < 20 | < 20 | < 20 | < 20 | 
B8 | 97 | 87 | 34 | 6 | 10 | < 20 | < 20 | < 20 | < 20 | < 20 | < 20 | 
